Test results reported in patent CN114106184A.

Tests used:
[1] = target: CA125抗原 (Cancer Antigen 125) (human) (UniProt Q8WXI7); experiment: SPR, Biacore T100, antigen on chip, 1:1 fit (repeats Table 1)
[2] = target: CA125抗原 (Cancer Antigen 125) (human) (UniProt Q8WXI7); experiment: SPR, Biacore T100, antigen coupled to chip, nanobody as analyte, 1:1 fit
[3] = target: CA125抗原 (Cancer Antigen 125) (human) (UniProt Q8WXI7); experiment: SPR, Biacore, comparator nanobody listed in Table 1
[4] = target: CA125抗原 (Cancer Antigen 125) (human) (UniProt Q8WXI7); experiment: SPR, Biacore T100, antigen coupled to chip, bispecific as analyte, 1:1 fit

Binder | Kd [1] [nM] | Kd [2] [nM] | Kd [3] [nM] | other results
VHH-CA125-4H10 (VHH, from another filing) VHH: ESGGGLVQPGGSLRLSCAASEFTLEHYAIGWFRQAPGKEREGVGCISSSQENTYVEDSAKGRFTISRDNVKNTVYLQMNSLKPEDTAVYYCAARRFGLCVISPGYFEVWGQGT |  |  | 0.285 | 
VHH-CA125-2H7 (VHH, from another filing) VHH: ESGGGLVQAGGSLRLSCERSDAPHSPYTMGWFRQAPGKDREFVATITWSGGTTLYADSVKGRFTISRGIAKNTAYLQMNTLKPEDTAVYYCAVGLGGGAYREDHQYDYWGQGT |  |  | 0.718 | 
VHH-CA125-4C1 (VHH, from another filing) VHH: ESGGGLVQAGGSLRLSCAASGNTFNINAMGWYRQAPGKQRELVATITSGGSTNYADSVKGRFTISRDNAKNTVFLQMNSLKPEDTAVYYCNAVQTRLPNSPDRYEYDYWGQGT |  |  | 0.635 | 
抗CA125双特异性纳米抗体 4A4-(G4S)4-6C1 (bispecific antibody) QVQLQESGGGLVQAGTSLTLSCAASERTFSAYDMNWYRQAPGKERELVAAISWRGPITYVADSVKGRFTISRDNAKNTVYLQMNSLKPEDTAIYYCNAEPGPGYVGSYALSYWGQGTQVTVSSGGGGSGGGGSGGGGSGGGGSQVQLQESGGGLVQAGGSLRLSCAASGSMFSINAMRWYRQAPGKQRELVAAITSGGSTNYADSVKGRFTISRDNAKNTMYLQMNSLKPEDTAVYYCNAAQTRLPNSADRYEYDYWGQGTQVTVSS |  |  |  | Kd [4]: 0.0768 nM

Second part, led by results:

Kd [1] [nM] | Kd [2] [nM] | Kd [3] [nM] | Binder | other results
0.198 | 0.198 |  | 抗CA125纳米抗体6C1 (VHH) VHH: QVQLQESGGGLVQAGGSLRLSCAASGSMFSINAMRWYRQAPGKQRELVAAITSGGSTNYADSVKGRFTISRDNAKNTMYLQMNSLKPEDTAVYYCNAAQTRLPNSADRYEYDYWGQGTQVTVSS | 
3.59 | 3.59 |  | 抗CA125纳米抗体4A4 (VHH) VHH: QVQLQESGGGLVQAGTSLTLSCAASERTFSAYDMNWYRQAPGKERELVAAISWRGPITYVADSVKGRFTISRDNAKNTVYLQMNSLKPEDTAIYYCNAEPGPGYVGSYALSYWGQGTQVTVSS | 
